In the supplement of paper PMC10724198:
“And” between values parts separate entries of the source, which are not always exact repeats. Equal entries are not always repeated. ± gives the standard deviation of the averaged measurements.

How the values were obtained:
[1] = test system: Saccharomyces cerevisiae; assay: protein stability index of tFT-peptide fusion in deletion strain of DOA10 (PSI (0-1 scale)); higher = more stable (slower turnover)
Procedure: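 MPS profiling in S. cerevisiae of two library types built from selected 12-aa C-degron peptides (IN1, IN2, LN1, LN3, VN2, R1-R5, W1-W3, Atg1 and Rpa12 C-termini): saturation mutagenesis libraries and C-terminal +1 capping libraries (13 aa). Each peptide is fused to the C-terminus of a sfGFP-mCherry timer, after a GGGS linker. Cells are FACS-sorted into 8 mCherry/sfGFP bins and sequenced. PSI runs from 0 (unstable) to 1 (stable), measured once in wild type and in the das1Δ or doa10Δ background.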

[2] = test system: Saccharomyces cerevisiae; assay: protein stability index of tFT-peptide fusion in wild type (PSI (0-1 scale)); higher = more stable (slower turnover); settings: genetic background: wild type
[3] = test system: Saccharomyces cerevisiae; assay: protein stability index of tFT-peptide fusion in deletion strain of DAS1 (PSI (0-1 scale)); higher = more stable (slower turnover)
[4] = test system: Saccharomyces cerevisiae; assay: protein stability index of tFT-peptide fusion (C-terminal peptide) (PSI (0-1 scale)); higher = more stable (slower turnover)
Procedure: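 MPS profiling in S. cerevisiae of the tFT-X12 degron library: putative degron peptides plus stable controls, 12 aa, fused to the C-terminus of a sfGFP-mCherry timer. Cells are FACS-sorted into 8 mCherry/sfGFP bins and deep-sequenced. PSI runs from 0 (unstable) to 1 (stable). Backgrounds are wild type, das1Δ and doa10Δ at 30 °C, and wild type, das1Δ, cdc34-1 and cdc53-1 at 37 °C; 2-3 technical replicates each.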

[5] = test system: Saccharomyces cerevisiae; assay: as above; settings: genetic background: wild type; temperature: 30 C
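For protein stability index of tFT-peptide fusion (C-terminal peptide) in this document: PSI is a weighted mean of sequencing reads over stability bins, variants kept only with over 10 reads, mCherry proximal and sfGFP distal, peptide attached via GGGS linker.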
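For protein stability index of tFT-peptide fusion in deletion strain of DAS1 in this document: PSI is a weighted mean of each variant's read distribution over the sorted stability bins, computed only for variants having over 10 reads in total.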
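For protein stability index of tFT-peptide fusion in deletion strain of DOA10 in this document: PSI per variant is the weighted mean of its sequencing read distribution over the sorted stability bins, counting only variants with over 10 reads summed across bins.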
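For protein stability index of tFT-peptide fusion in wild type in this document: PSI derived as read-weighted mean over the 8 sorting bins, only variants exceeding 10 total reads kept, mCherry placed adjacent to the peptide and sfGFP distal.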

IITLPMCPLLLR
protein stability index [1]: 0.597 | protein stability index [2]: 0.324

RVTRLDAHYFRI
protein stability index [1]: 0.71 | protein stability index [2]: 0.684

AITLPMCPSLLR
protein stability index [1]: 0.68 | protein stability index [2]: 0.647

AITLPMCPLDLR
protein stability index [1]: 0.685 | protein stability index [2]: 0.676

RLIQPLPVEFLN
protein stability index [2]: 0.0996 | protein stability index [3]: 0.586

RLIQPLPVQFLQ
protein stability index [2]: 0.447 | protein stability index [3]: 0.647

LKILRQKMNHQG
protein stability index [2]: 0.215 | protein stability index [3]: 0.656

LVVYLSCTACIN
protein stability index [2]: 0.0192 | protein stability index [3]: 0.0401

CYSCGYKFRTNN
protein stability index [2]: 0.168 | protein stability index [3]: 0.708

LKIGRQKMNHQN
protein stability index [2]: 0.414 | protein stability index [3]: 0.674

FSMRWTFDYWVN
protein stability index [2]: 0.618 | protein stability index [3]: 0.577

PSLAATFWRVVG
protein stability index [2]: 0.135 | protein stability index [3]: 0.674

FMMRWTFRYWVN
protein stability index [2]: 0.0399 | protein stability index [3]: 0.359

LKILRQKMDHQN
protein stability index [2]: 0.613 | protein stability index [3]: 0.673

PDKRNHLIQLLN
protein stability index [2]: 0.102 | protein stability index [3]: 0.616

VRGAVGFWRLVG
protein stability index [2]: 0.16 | protein stability index [3]: 0.687

CTSCGYKFFTNN
protein stability index [2]: 0.347 | protein stability index [3]: 0.727

KKPKKGQKQKIN
protein stability index [2]: 0.174 | protein stability index [3]: 0.591

ARWRVGLWRGPS
protein stability index [2]: 0.672 | protein stability index [3]: 0.69

ARWRVGLWRGASM
protein stability index [2]: 0.651 | protein stability index [3]: 0.639

FSMRWTFRYWVM
protein stability index [2]: 0.136 | protein stability index [3]: 0.482

VRWRVGLWRGAS
protein stability index [2]: 0.209 | protein stability index [3]: 0.648

QVVYLSCVACIN
protein stability index [2]: 0.0122 | protein stability index [3]: 0.0307

KKHKAGQKQKIN
protein stability index [2]: 0.0948 | protein stability index [3]: 0.579

ARWRVGLWTGAS
protein stability index [2]: 0.664 | protein stability index [3]: 0.677

FSMSWTFRYWVN
protein stability index [2]: 0.0567 | protein stability index [3]: 0.493

KKHKKGQKQKINL
protein stability index [2]: 0.652 | protein stability index [3]: 0.663

PDKRNHLIKLLN
protein stability index [2]: 0.141 and 0.117 | protein stability index ([4]; genetic background: cdc34-1, temperature: 37 C): 0.537 ± 0.022 | protein stability index ([4]; genetic background: cdc53-1, temperature: 37 C): 0.691 ± 0.03 | protein stability index ([4]; genetic background: das1 deletion, temperature: 30 C): 0.648 ± 0.029 | protein stability index ([4]; genetic background: das1 deletion, temperature: 37 C): 0.704 ± 0.0085 | protein stability index ([4]; genetic background: doa10 deletion, temperature: 30 C): 0.0937 ± 0.024 | protein stability index ([4]; genetic background: wild type, temperature: 30 C): 0.119 ± 0.0097 | protein stability index ([4]; genetic background: wild type, temperature: 37 C): 0.153 ± 0.031 | protein stability index [5]: 0.194 ± 0.031 | protein stability index [3]: 0.661 and 0.625

LVVYLSRVACIN
protein stability index [2]: 0.087 | protein stability index [3]: 0.356

LKILRQKVNHQN
protein stability index [2]: 0.282 | protein stability index [3]: 0.661

FSMRWCFRYWVN
protein stability index [2]: 0.0796 | protein stability index [3]: 0.554

VRGAVRGWRLVG
protein stability index [2]: 0.146 | protein stability index [3]: 0.7

CSLAASFWRVVG
protein stability index [2]: 0.125 | protein stability index [3]: 0.69

ARWRAGLWRGAS
protein stability index [2]: 0.653 | protein stability index [3]: 0.7

KKHKKGQKQSIN
protein stability index [2]: 0.673 | protein stability index [3]: 0.577

LVVYLSCVACSN
protein stability index [2]: 0.0158 | protein stability index [3]: 0.0313

PSLAASFIRVVG
protein stability index [2]: 0.46 | protein stability index [3]: 0.435

LVVYLSCVICIN
protein stability index [2]: 0.0482 | protein stability index [3]: 0.112

PSLDASFWRVVG
protein stability index [2]: 0.128 | protein stability index [3]: 0.677

VSMRWTFRYWVN
protein stability index [2]: 0.0543 | protein stability index [3]: 0.509

ARWRVGLKRGAS
protein stability index [2]: 0.627 | protein stability index [3]: 0.663

RLIQPLPCQFLN
protein stability index [2]: 0.0496 | protein stability index [3]: 0.587

FSMRWTFRYWNN
protein stability index [2]: 0.158 | protein stability index [3]: 0.549

CTSCGYKFRTNA
protein stability index [2]: 0.266 | protein stability index [3]: 0.697

CTSCGYKQRTNN
protein stability index [2]: 0.538 | protein stability index [3]: 0.688

LVVPLSCVACIN
protein stability index [2]: 0.254 | protein stability index [3]: 0.359

CTSCGYKFRTNNG
protein stability index [2]: 0.683 | protein stability index [3]: 0.69

LKILRQKMNHMN
protein stability index [2]: 0.191 | protein stability index [3]: 0.605

ARWRVGLWRGASW
protein stability index [2]: 0.67 | protein stability index [3]: 0.71

CTSCGYKFRTTN
protein stability index [2]: 0.191 | protein stability index [3]: 0.699

KKHKKGLKQKIN
protein stability index [2]: 0.0663 | protein stability index [3]: 0.596

LKIQRQKMNHQN
protein stability index [2]: 0.23 | protein stability index [3]: 0.676

ARWRVGWWRGAS
protein stability index [2]: 0.405 | protein stability index [3]: 0.701
